These are literature values, as cited in US20220323445A1, “REDUCING IMMUNOGENICITY TO PEGLOTICASE” (Horizon Therapeutics Ireland DAC, priority 2020, published 2022).

Values joined by “and” are separate entries in the source; they are usually repeats but may differ in a detail not shown here. Equal values may be shown once.

Common to all, as to settings: cited from earlier work
In data set [1] the test system is patients with chronic gout.
The test system of data set [2] is anti-pegloticase antibodies.
Data set [3] relates to serum uric acid (sUA).

B1: pegloticase (protein)
chain: TYKKNDEVEFVRTGYGKDMIKVLHIQRDGKYHSIKEVATTVQLTLSSKKDYLHGDNSDVIPTDTIKNTVNVLAKFKGIKSIETFAVTICEHFLSSFKHVIRAQVYVEEVPWKRFEKNGVKHVHAFIYTPTGTHFCEVEQIRNGPPVIHSGIKDLKVLKTTQSGFEGFIKDQFTTLPEVKDRCFATQVYCKWRYHQGRDVDFEATWDTVRSIVLQKFAGPYDKGEYSPSVQKTLYDIQVLTLGQVPEIEDMEISLPNIHYLNIDMSKMGLINKEEVLLPLDNPYGKITGTVKRKLSSRL
modifications: monomethoxy PEG conjugated; Krystexxa Sequence
notes: covalent conjugate of uricase produced by a genetically modified strain of Escherichia coli and monomethoxypoly (ethylene glycol)
In the case of B1, the “patients with IRs in whom loss of response (return to SUA >6 mg/dL) preceded the first IR” value in data set [1] (20/21 pegloticase-treated patients with IRs) is 95%. In data set [1] (pegloticase 8 mg every 2 weeks (biweekly dosing)), the “incidence of infusion reactions” value is listed as 26%. For the same molecule, the “incidence of infusion-related reactions” value in data set [1] (pegloticase 8 mg every-4-week dosing regimen) is listed as 40%. Moreover, the frequency of anaphylaxis in data set [1] (pre-marketing controlled clinical trials) is 6.5%. The “patients with antibody titer exceeding 1:2430 at any time who maintained a response” value in data set [2] (7 of 65 patients) is 10.8%. In addition, the “patients with antibody titers exceeding 1:2430 who developed IRs” value in data set [2] (31 of 52 patients) is 60%. Also, the “patients who never had an antibody titer above 1:2430 (comparison for maintained response)” value in data set [2] (58/65) is 89.2%. Also, the “participants with high antibody titers who maintained a response (serum urate <6 mg/dL)” value in data set [2] (second study) is given as 1 of 52 participants. Besides, the “response rate (proportion of responders) during Month 6 in phase 3 studies” value in data set [3] (pegloticase 8 mg every 2 weeks, without MTX) was 43% and 43.5%. Besides, in data set [3] (pegloticase alone), the “proportion of patients maintaining therapeutic response at 6 months, previously reported” value is on record as 42%.
